Measurements from patent US20140105889A1 (published 2014).
Substitutions are numbered along the chain they refer to. Numbers in names are those of the source. Where two headings read alike, the source gives them in different places. Each block holds one binder with its values, some of them ahead of it.

Experiments:
[1] = target: T1, mouse FcγRIV (mouse); assay: SPR (Biacore), antibody captured on Protein L, mouse FcγR as analyte, pH 7.4, 25 C
T1 construct: Bought soluble receptor; also called mFcgRIV; mFcgR IV

[2] = target: T2, human FcγRIIIa(F) (human, UniProt P08637 17-208, limits assumed); assay: SPR (Biacore), antibody captured on Protein L, human FcγR as analyte, pH 7.4, 25 C
T2 construct: also called hFcgRIIIa(F); hFcgRIIIa

[3] = target: T3, human FcRn (human); assay: SPR (Biacore), pH 7.0, 25 C; antibody captured on Protein L, human FcRn injected
T3 construct: Soluble human FcRn complexed with beta2-microglobulin; also called hFcRn; soluble human FcRn complexed with β2-microglobulin

[4] = target: T4, human FcRn (soluble human FcRn complexed with β2-microglobulin) (human, UniProt P61769 21-119); assay: Biacore SPR, pH 7.0, 25 C; antibody captured by Protein L, human FcRn as analyte
T4 construct: also called hFcRn

[5] = target: T4, human FcRn (soluble human FcRn …); assay: as above; remark: listed apart in the source
[6] = target: T5, human FcγRIIa type R (allotype R131) (human, UniProt P12318 36-217); assay: SPR (Biacore), antibody captured on the chip, FcγR as analyte
T5 construct: also called FcγRIIaR; FcγRIIa(R)
T5 chain: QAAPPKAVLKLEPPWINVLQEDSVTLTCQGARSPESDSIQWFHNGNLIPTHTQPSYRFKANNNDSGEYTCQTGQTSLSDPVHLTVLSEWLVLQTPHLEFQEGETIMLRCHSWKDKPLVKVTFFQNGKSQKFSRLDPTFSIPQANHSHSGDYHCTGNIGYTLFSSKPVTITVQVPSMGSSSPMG

[7] = target: T6, human FcγRIIa type H (allotype H131) (human, UniProt P12318 36-217); assay: as above
T6 construct: also called FcγRIIaH; FcγRIIa(H)
T6 sequence: T5 chain with R133H

[8] = target: T7, human FcγRIIIa type V (allotype V158) (human, UniProt P08637 17-208, limits assumed); assay: as above
T7 construct: the assay used allotype V158; also called FcγRIIIaV; FcγRIIIa(V)

[9] = target: T8, human FcγRIIb (human, UniProt P31994 43-217); assay: SPR (Biacore); KD of parent IL6R-B3/IL6R-L for FcγRIIb divided by KD of the variant for FcγRIIb
T8 construct: also called FcγIIB
T8 sequence: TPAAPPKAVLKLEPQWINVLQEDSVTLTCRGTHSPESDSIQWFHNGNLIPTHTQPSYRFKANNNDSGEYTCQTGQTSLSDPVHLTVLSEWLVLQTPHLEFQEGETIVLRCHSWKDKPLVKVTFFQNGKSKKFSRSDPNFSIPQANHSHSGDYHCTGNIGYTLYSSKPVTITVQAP

[10] = target: T9, human FcγRIIb (human, UniProt P31994 43-217, limits assumed); assay: SPR (Biacore) KD; ratio against the KD for FcγRIIaH
T9 construct: also called hFcgRIIb
T9 sequence: T8 sequence

[11] = target: T9, human FcγRIIb; assay: SPR (Biacore) KD; ratio against the KD for FcγRIIaR
[12] = target: T10, human FcγRIIa(H) (human, UniProt P12318 36-217); assay: SPR (Biacore T100), antibody captured by Protein A, FcγR at 2 µmol/L, 25 C
T10 construct: also called hFcgRIIa(H); FcγRIIa type H
T10 sequence: T5 chain with R133H

[13] = target: T11, human FcγRIIIa(F) (human, UniProt P08637 17-208, limits assumed); assay: as above
T11 construct: also called hFcgRIIIa(F)

[14] = target: T12, human FcγRIIb (human, UniProt P31994 43-217, limits assumed); assay: SPR (Biacore), antibody captured, FcγR as analyte
T12 construct: also called FcgRIIb; FcγIIB
T12 sequence: T8 sequence

[15] = target: T13, human FcγRIIa(R) (human, UniProt P12318 36-217); assay: SPR (Biacore), captured antibody, FcγR analyte; bound/captured amount vs control x100
T13 construct: also called FcgRIIaR; FcγRIIa type R
T13 chain: T5 chain

[16] = target: T14, mouse FcγRI (mouse, UniProt P26151 25-297); assay: SPR (Biacore), protein L capture, pH 7.4, 25 C
T14 construct: Bought; also called mFcgRI
T14 sequence (looked up): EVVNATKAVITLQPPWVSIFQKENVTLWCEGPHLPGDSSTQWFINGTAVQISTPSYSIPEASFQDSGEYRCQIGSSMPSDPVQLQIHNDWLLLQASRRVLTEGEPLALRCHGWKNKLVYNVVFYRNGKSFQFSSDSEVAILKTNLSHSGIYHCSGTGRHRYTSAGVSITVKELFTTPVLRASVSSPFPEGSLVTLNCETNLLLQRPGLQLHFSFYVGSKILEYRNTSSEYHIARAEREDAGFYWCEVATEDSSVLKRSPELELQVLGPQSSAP

[17] = target: T15, mouse FcγRIIb (mouse, UniProt P08101 40-217, limits assumed); assay: SPR (Biacore), protein L capture, pH 7.4, 25 C
T15 construct: Bought; also called mFcgRIIb
T15 sequence (looked up): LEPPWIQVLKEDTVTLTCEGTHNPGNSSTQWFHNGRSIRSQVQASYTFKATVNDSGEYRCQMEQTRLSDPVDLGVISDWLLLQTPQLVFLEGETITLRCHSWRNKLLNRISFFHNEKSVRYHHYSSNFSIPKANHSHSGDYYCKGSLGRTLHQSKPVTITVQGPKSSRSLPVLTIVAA

[18] = target: T16, mouse FcγRIII (mouse, UniProt P08508 31-215); assay: SPR (Biacore), protein L capture, pH 7.4, 25 C
T16 construct: Bought; also called mFcgRIII
T16 sequence (looked up): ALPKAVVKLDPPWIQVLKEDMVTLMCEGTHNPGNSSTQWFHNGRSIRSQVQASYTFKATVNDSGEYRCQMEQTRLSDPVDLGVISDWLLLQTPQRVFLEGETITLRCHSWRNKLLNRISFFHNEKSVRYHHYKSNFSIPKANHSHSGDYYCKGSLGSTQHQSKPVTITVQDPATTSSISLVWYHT

T7 sequence (P08637 other isoform, or with tags, fused parts or gaps limits assumed): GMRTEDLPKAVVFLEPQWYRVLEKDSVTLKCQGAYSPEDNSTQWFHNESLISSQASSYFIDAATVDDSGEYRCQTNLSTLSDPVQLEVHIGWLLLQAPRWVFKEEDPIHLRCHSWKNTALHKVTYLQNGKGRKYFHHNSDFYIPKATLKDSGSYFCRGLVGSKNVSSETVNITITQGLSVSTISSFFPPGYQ
T1 sequence (A0A0B4J1G0 21-203): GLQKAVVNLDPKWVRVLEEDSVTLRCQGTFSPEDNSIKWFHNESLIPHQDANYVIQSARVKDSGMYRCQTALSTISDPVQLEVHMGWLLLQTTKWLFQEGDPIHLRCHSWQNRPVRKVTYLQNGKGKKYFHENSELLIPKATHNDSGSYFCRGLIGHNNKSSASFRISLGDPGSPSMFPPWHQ

BINDING AMOUNT (RU) [1]: 242 RU
BINDING AMOUNT (RU) [2]: 147 RU
B1: VH3/L(WT)-IgG1-F21 (antibody)
heavy: QVQLQESGPGLVKPSETLSLTCAVSGHSISHDHAWSWVRQPPGEGLEWIGFISYSGITNYNPSLQGRVTISRDNSKNTLYLQMNSLRAEDTAVYYCARSLARTTAMDYWGEGTLVTVSSASTKGPSVFPLAPSSKSTSGGTAALGCLVKDYFPEPVTVSWNSGALTSGVHTFPAVLQSSGLYSLSSVVTVPSSSLGTQTYICNVNHKPSNTKVDKKVEPKSCDKTHTCPPCPAPELLGGPSVFLFPPKPKDTLYISRTPEVTCVVVDVSHEDPEVKFNWYVDGVEVHNAKTKPREEQYNSTYRVVSVLTPLHQDWLNGKEYKCKVSNKALPAPIEKTISKAKGQPREPQVYTLPPSRDELTKNQVSLTCLVKGFYPSDIAVEWESNGQPENNYKTTPPVLDSDGSFFLYSKLTVDKSRWQQGNVFSCSVMHEALHYHYTQKSLSLSP
light: not shown
notes: copies: 2 + 2

Kd [5]: 0.94 µM
B4: IgG1-F207 (antibody, name in EU numbering)
heavy: B1 heavy with T309K, P310V
light: not shown
notes: VH3-IgG1 Fc variant; EU numbering

binding (RU) [12]: ~2.5 RU
binding (RU) [13]: ~2.5 RU
B8: IgG1-v1 (antibody)
heavy: not shown
light: DIQMTQSPSSLSASVGDRVTITCRASQDISSYLNWYQQKPGKAPKLLIYYTSRLHSGVPSRFSGSGSGTDFTFTISSLQPEDIATYYCQQGNTLPYTFGQGTKVEIK
notes: copies: 2 + 2

binding (RU) [12]: ~10 RU
binding (RU) [13]: ~5 RU
B9: IgG1-v2 (antibody)
heavy: not shown
light: B8 light
notes: copies: 2 + 2

relative binding activity [15]: 8 % of GpH7-B3/GpL16-k0
B12: GpH7-B3 G237P/GpL16-k0 (antibody, human IgG1)
heavy: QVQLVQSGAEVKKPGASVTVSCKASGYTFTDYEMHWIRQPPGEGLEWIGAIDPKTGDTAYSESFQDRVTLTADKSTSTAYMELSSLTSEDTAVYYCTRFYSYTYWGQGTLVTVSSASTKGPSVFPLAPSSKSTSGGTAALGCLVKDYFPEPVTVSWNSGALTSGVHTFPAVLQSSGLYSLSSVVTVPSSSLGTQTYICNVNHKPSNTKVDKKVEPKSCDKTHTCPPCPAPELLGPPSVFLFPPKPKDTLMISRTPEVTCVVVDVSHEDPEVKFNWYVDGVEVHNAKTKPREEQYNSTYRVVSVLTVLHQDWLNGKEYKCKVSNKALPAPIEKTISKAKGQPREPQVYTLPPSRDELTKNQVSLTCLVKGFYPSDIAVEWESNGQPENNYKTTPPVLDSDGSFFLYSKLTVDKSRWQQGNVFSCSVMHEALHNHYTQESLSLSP
light: DIVMTQSPLSLPVTPGEPASISCQASESLVHSNRNTYLHWYLQKPGQSPQLLIYKVSNRFSGVPDRFSGSGSGTDFTLKISRVEAEDVGVYYCSQNTHVPPTFGQGTKVEIE
notes: B3 variant of anti-glypican-3 IgG1; substitution in EU numbering; also called B3 variant

The next lines start with the binder.

B2: IgG1-F722 (antibody)
heavy: B1 heavy with P240D, P310V, A329G
light: not shown
notes: Substitutions by EU numbering; copies: 2 + 2
Kd [3]: 0.27 µM

B3: IgG1-F79 (antibody, name in EU numbering)
heavy: B1 heavy with Y254M, S256T, T258E, P310V, Y436A
light: not shown
notes: as for B4
Kd [4]: 5.9 µM

B5: IL6R-BP185/IL6R-L (antibody, human IgG1)
heavy: QVQLQESGPGLVKPSETLSLTCAVSGHSISHDHAWSWVRQPPGEGLEWIGFISYSGITNYNPSLQGRVTISRDNSKNTLYLQMNSLRAEDTAVYYCARSLARTTAMDYWGEGTLVTVSSASTKGPSVFPLAPSSKSTSGGTAALGCLVKDYFPEPVTVSWNSGALTSGVHTFPAVLQSSGLYSLSSVVTVPSSSLGTQTYICNVNHKPSNTKVDKKVEPKSCDKTHTCPPCPAPDYLGDDSVFLFPPKPKDTLMISRTPEVTCVVVDVSHEDGEVKFNWYVDGVEVHNAKTKPREEQYNSTYRVVSVLTVLHQDWLNGKEYKCKVSNAALPKPIEKTISKAKGQPREPQVYTLPPSRDELTKNQVSLTCLVKGFYPSDIAVEWESNGQPENNYKTTPPVLDSDGSFFLYSKLTVDKSRWQQGNVFSCSVMHEALHNHYTQESLSLSP
light: B8 light
notes: Anti-human IL-6 receptor human IgG1 variant; copies: 2 + 2
Kd [6]: 0.68 µM
Kd [7]: 7.3 µM
Kd [8]: 36 µM
KD(IIb) of the parent polypeptide/KD(IIb) of the altered polypeptide [9]: 44.5

B6: IL6R-F11/IL6R-L (antibody, human IgG1)
heavy: not shown
light: B8 light
notes: copies: 2 + 2
KD value for FcγRIIaH/KD value for FcγRIIb [10]: 0.7
KD value for FcγRIIaR/KD value for FcγRIIb [11]: 0.7

B7: IL6R-B3/IL6R-L (antibody, human IgG1)
heavy: not shown
light: B8 light
notes: copies: 2 + 2
KD value for FcγRIIaH/KD value for FcγRIIb [10]: 0.2
KD value for FcγRIIaR/KD value for FcγRIIb [11]: 0.3

B10: GpH7-B3 D270W / GpL16-k0 (antibody, human IgG1)
heavy: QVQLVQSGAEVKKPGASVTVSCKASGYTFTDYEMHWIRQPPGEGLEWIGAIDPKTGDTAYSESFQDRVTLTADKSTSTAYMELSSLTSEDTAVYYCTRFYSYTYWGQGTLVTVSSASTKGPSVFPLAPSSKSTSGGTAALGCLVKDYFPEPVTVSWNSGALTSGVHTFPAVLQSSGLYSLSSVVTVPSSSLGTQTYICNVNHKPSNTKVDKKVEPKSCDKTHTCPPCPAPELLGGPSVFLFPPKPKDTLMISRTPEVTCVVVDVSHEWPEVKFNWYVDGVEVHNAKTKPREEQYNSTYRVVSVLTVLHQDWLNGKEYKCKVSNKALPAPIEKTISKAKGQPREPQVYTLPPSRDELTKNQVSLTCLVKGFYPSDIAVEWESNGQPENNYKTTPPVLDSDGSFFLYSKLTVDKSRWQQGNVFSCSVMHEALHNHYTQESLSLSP
light: B12 light
notes: B3 variant: anti-glypican-3 IgG1 (constant region B3 = G1d with K439E) with one substitution, EU numbering; also called B3 variant D270W; copies: 2 + 2
relative binding activity (amount bound / amount bound by GpH7-B3/GpL16-k0 x100) [14]: -2 % of GpH7-B3/GpL16-k0

B11: GpH7-B3 S239R/GpL16-k0 (antibody, human IgG1)
heavy: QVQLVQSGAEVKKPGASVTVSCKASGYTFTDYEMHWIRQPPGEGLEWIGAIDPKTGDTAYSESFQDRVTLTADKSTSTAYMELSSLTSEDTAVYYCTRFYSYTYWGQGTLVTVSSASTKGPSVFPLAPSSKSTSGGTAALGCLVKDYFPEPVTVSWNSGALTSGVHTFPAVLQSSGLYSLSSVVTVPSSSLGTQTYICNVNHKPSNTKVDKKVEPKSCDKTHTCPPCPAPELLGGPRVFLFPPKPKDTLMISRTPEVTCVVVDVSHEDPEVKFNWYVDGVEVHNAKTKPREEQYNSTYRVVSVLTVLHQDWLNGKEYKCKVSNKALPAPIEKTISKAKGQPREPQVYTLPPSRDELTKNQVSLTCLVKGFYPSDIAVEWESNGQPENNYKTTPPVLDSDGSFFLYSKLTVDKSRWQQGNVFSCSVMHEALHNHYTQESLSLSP
light: B12 light
notes: as for B12
relative binding activity [15]: 8 % of GpH7-B3/GpL16-k0

B13: mPM1-mIgG1-mF39 (antibody)
heavy: DVQLQESGPVLVKPSQSLSLTCTVTGYSITSDHAWSWIRQFPGNKLEWMGYISYSGITTYNPSLKSRISITRDTSKNQFFLQLNSVTTGDTSTYYCARSLARTTAMDYWGQGTSVTVSSAKTTPPSVYPLAPGSAAQTNSMVTLGCLVKGYFPEPVTVTWNSGSLSSGVHTFPAVLQSDLYTLSSSVTVPSSTWPSETVTCNVAHPASSTKVDKKIVPRDCGCKPCICTVKEVSKVFIFPPKPKDVLYITLEPKVTCVVVDISKDDPEVQFSWFVDDVEVHTAQTQPREEQFNSTFRSVSELPIMHQDWLNGKEFKCRVNSAAFPAPIEKTISKTKGRPKAPQVYTIPPPKEQMAKDKVSLTCMITDFFPEDITVEWQWNGQPAENYKNTQPIMDTDGSYFVYSKLNVQKSNWEAGNTFTCSVLHEGLKNHHTEKSLSHSPGK
light: DIQMTQTTSSLSASLGDRVTISCRASQDISSYLNWYQQKPDGTIKLLIYYTSRLHSGVPSRFSGSGSGTDYSLTINNLEQEDIATYFCQQGNTLPYTFGGGTKLEIKRADAAPTVSIFPPSSEQLTSGGASVVCFLNNFYPKDINVKWKIDGSERQNGVLNSWTDQDSKDSTYSMSSTLTLTKDEYERHNSYTCEATHKTSTSPIVKSFNRNEC
notes: copies: 2 + 2
binding result [16]: no binding
binding result [17]: no binding
binding result [18]: no binding

B14: mPM1-mIgG1-mF40 (antibody)
heavy: B13 heavy with K429H, N430W
light: B13 light
notes: copies: 2 + 2
binding result [16]: no binding
binding result [17]: no binding
binding result [18]: no binding
